In patent US20030148921:

Tests used:
[1] = target: GPAR4^R47S activation site mutant fusion protein
[2] = target: GPAR3^K37S activation site mutant fusion protein
[3] = target: GPAR2^R34S activation site mutant fusion protein
[4] = target: galactosidase-PAR2 (GPAR2) fusion protein
[5] = target: activation site mutant fusion protein GPAR1^R45S
[6] = target: galactosidase-PAR3 (GPAR3) fusion protein
[7] = target: galactosidase-PAR1 (GPAR1) fusion protein [β-galactosidase: P00722]
[8] = target: galactosidase-PAR4 (GPAR4) fusion protein
Chain of galactosidase-PAR4 (GPAR4) fusion protein (chain, as listed by the source, chain 1 of 2): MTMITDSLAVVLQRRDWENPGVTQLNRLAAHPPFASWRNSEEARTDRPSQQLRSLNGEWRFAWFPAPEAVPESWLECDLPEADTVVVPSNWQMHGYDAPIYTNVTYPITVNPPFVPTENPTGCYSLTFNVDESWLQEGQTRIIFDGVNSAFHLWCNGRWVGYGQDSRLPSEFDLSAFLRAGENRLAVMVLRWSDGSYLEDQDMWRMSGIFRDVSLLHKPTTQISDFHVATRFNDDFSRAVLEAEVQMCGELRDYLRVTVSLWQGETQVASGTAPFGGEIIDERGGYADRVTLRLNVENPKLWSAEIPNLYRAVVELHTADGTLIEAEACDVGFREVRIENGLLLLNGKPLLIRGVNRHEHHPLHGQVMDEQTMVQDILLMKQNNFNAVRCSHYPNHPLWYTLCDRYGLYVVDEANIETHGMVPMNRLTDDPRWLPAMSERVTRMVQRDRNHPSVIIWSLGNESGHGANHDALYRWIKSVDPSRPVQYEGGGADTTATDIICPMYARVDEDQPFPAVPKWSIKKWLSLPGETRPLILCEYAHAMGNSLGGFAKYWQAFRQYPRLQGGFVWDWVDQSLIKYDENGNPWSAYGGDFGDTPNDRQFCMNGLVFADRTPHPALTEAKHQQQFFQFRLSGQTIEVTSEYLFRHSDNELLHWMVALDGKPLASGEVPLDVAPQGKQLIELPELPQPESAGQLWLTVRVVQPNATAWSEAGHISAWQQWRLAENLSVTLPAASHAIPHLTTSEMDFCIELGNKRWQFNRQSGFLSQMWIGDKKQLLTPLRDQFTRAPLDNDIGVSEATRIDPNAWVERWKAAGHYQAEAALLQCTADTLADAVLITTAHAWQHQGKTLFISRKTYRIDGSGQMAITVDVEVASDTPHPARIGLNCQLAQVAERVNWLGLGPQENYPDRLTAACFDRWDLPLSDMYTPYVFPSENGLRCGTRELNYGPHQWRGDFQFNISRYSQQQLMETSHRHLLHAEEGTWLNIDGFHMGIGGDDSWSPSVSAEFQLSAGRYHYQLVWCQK
Chain of galactosidase-PAR4 (GPAR4) fusion protein (chain, as listed by the source, chain 2 of 2): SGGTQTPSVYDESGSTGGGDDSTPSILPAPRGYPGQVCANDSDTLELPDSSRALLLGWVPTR

Chain of galactosidase-PAR3 (GPAR3) fusion protein (chain, as listed by the source, chain 1 of 2): as the sequence (chain, as listed by the source, chain 1 of 2) above
Chain of galactosidase-PAR3 (GPAR3) fusion protein (chain, as listed by the source, chain 2 of 2): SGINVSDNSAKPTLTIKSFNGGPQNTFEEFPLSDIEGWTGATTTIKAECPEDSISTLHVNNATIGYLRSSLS
Chain of galactosidase-PAR2 (GPAR2) fusion protein (chain, as listed by the source, chain 1 of 2): as the sequence (chain, as listed by the source, chain 1 of 2) above
Chain of galactosidase-PAR2 (GPAR2) fusion protein (chain, as listed by the source, chain 2 of 2): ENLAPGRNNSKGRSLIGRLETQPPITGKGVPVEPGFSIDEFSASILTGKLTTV
Chain of galactosidase-PAR1 (GPAR1) fusion protein [β-galactosidase: P00722] (P00722 whole entry, chain 1 of 2, the tested form may be a part): as the sequence (chain, as listed by the source, chain 1 of 2) above
Chain of galactosidase-PAR1 (GPAR1) fusion protein [β-galactosidase: P00722] (chain, as listed by the source, chain 2 of 2): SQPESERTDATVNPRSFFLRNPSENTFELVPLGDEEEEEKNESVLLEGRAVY
Chain of GPAR4^R47S activation site mutant fusion protein (chain, as listed by the source R47S, chain 1 of 2): as the sequence (chain, as listed by the source, chain 1 of 2) above, with R47S counted along it
Chain of GPAR4^R47S activation site mutant fusion protein (chain, as listed by the source R47S, chain 2 of 2): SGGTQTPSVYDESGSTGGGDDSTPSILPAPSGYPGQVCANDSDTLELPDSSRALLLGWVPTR

Row | Protein | β-Galactosidase release rate (mmol β-Galactosidase/(molProtease * min)) [1] | β-Galactosidase release rate (mmol β-Galactosidase/(molProtease * min)) [2] | β-Galactosidase release rate (mmol β-Galactosidase/(molProtease * min)) [3] | cleavage efficiency, against GPAR2^R34S [4] | cleavage rate, against trypsin [4] | β-Galactosidase release rate (mmol β-Galactosidase/(molProtease * min)) [4] | β-Galactosidase release rate (mmol β-Galactosidase/(molProtease * min)) [5] | activity on GPAR3, against thrombin [6] | β-Galactosidase release rate (mmol β-Galactosidase/(molProtease * min)) [6] | β-Galactosidase release rate (mmol β-Galactosidase/(molProtease * min)) [7] | β-Galactosidase release rate (mmol β-Galactosidase/(molProtease * min)) [8] | β-Galactosidase release rate (determined in the presence of hirudin) [6] | β-Galactosidase release rate (determined in the presence of hirudin) [7]
1 | human plasmin (protein) KVYLSECKTGNGKNYRGTMSKTKNGITCQKWSSTSPHRPRFSPATHPSEGLEENYCRNPDNDPQGPWCYTTDPEKRYDYCDILECEEECMHCSGENYDGKISKTMSGLECQAWDSQSPHAHGYIPSKFPNKNLKKNYCRNPDRELRPWCFTTDPNKRWELCDIPRCTTPPPSSGPTYQCLKGTGENYRGNVAVTVSGHTCQHWSAQTPHTHNRTPENFPCKNLDENYCRNPDGKRAPWCHTTNSQVRWEYCKIPSCDSSPVSTEQLAPTAPPELTPVVQDCYHGDGQSYRGTSSTTTTGKKCQSWSSMTPHRHQKTPENYPNAGLTMNYCRNPDADKGPWCFTTDPSVRWEYCNLKKCSGTEASVVAPPPVVLLPDVETPSEEDCMFGNGKGYRGKRATTVTGTPCQDWAAQEPHRHSIFTPETNPRAGLEKNYCRNPDGDVGGPWCYTTNPRKLYDYCDVPQCAAPSFDCGKPQVEPKKCPGRVVGGCVAHPHSWPWQVSLRTRFGMHFCGGTLISPEWVLTAAHCLEKSPRPSSYKVILGAHQEVNLEPHVQEIEVSRLFLEPTRKDIALLKLSSPAVITDKVIPACLPSPNYVVADRTECFITGWGETQGTFGAGLLKEAQLPVIENKVCNRYEFLNGRVQSTELCAGHLAGGTDSCQGDSGGPLVCFEKDKYILQGVTSWGLGCARPNKPGVYVRVSRFVTWIEGVMRNN | 0.26 | 0.16 | 0.35 | Plasmin cleaved GPAR2 two times more efficiently than GPAR2^R34S | only at a 560 fold lower rate than trypsin | 0.67 | 0.29 | about 120 times less active than thrombin | 0.34 | 4.1 | 0.48 |  | 
2 | human single-chain tPA (protein) SYQVICRDEKTQMIYQQHQSWLRPVLRSNRVEYCWCNSGRAQCHSVPVKSCSEPRCFNGGTCQQALYFSDFVCQCPEGFAGKCCEIDTRATCYEDQGISYRGTWSTAESGAECTNWNSSALAQKPYSGRRPDAIRLGLGNHNYCRNPDRDSKPWCYVFKAGKYSSEFCSTPACSEGNSDCYFGNGSAYRGTHSLTESGASCLPWNSMILIGKVYTAQNPSAQALGLGKHNYCRNPDGDAKPWCHVLKNRRLTWEYCDVPSCSTCGLRQYSQPQFRIKGGLFADIASHPWQAAIFAKHRRSPGERFLCGGILISSCWILSAAHCFQERFPPHHLTVILGRTYRVVPGEEEQKFEVEKYIVHKEFDDDTYDNDIALLQLKSDSSRCAQESSVVRTVCLPPADLQLPDWTECELSGYGKHEALSPFYSERLKEAHVRLYPSSRCTSQHLLNRTVTDNMLCAGDTRSGGPQANLHDACQGDSGGPLVCLNDGRMTLVGIISWGLGCGQKDVPGVYTKVTNYLDWIRDNMRP | ≤ 0.01 | ≤ 0.01 | ≤ 0.01 |  |  | ≤ 0.01 | ≤ 0.01 |  | 0.03 | ≤ 0.01 | ≤ 0.01 |  | 
3 | human leukocyte elastase (protein) IVGGRRARPHAWPFMVSLQLRGGHFCGATLIAPNFVMSAAHCVANVNVRAVRVVLGAHNLSRREPTRQVFAVQRIFENGYDPVNLLNDIVILQLNGSATINANVQVAQLPAQGRRLGNGVQCLAMGWGLLGRNRGIASVLQELNVTVVTSLCRRSNVCTLVRGRQAGVCFGDSGSPLVCNGLIHGIASFVRGGCASGLYPDAFAPVAQFVNWIDSIIQ | 11 | 93 | 16 |  |  | 24 | 140 |  | 50 | 78 | 12 |  | 
4 | bovine activated protein C (protein) ANSFLEELRPGNVERECSEEVCEFEEAREIFQNTEDTMAFWSFYSDGDQCEDRPSGSPCDLPCCGRGKCIDGLGGFRCDCAEGWEGRFCLHEVRFSNCSAENGGCAHYCMEEEGRRHCSCAPGYRLEDDHQLCVSKVTFPCGRLGKRMEKKRKTLKRDTNQVDQKDQLDPRIVDGQEAGWGESPWQAVLLDSKKKLVCGAVLIHVSWVLTVAHCLDSRKKLIVRLGEYDMRRWESWEVDLDIKEVIIHPNYTKSTSDNDIALLRLAKPATLSQTIVPICLPDSGLSERKLTQVGQETVVTGWGYRDETKRNRTFVLSFIKVPVVPYNACVHAMENKISENMLCAGILGDPRDACEGDSGGPMVTFFRGTWFLVGLVSWGEGCGRLYNYGVYTKVSRYLDWIYGHIKAQEAPLESQVP | ≤ 0.01 | ≤ 0.01 | ≤ 0.01 |  |  | ≤ 0.01 | ≤ 0.01 |  |  |  | ≤ 0.01 | ≦1 * 10^-2 a | ≦1 * 10^-2 a
